The text below walks through data of PMC5430726, “Grb2 carboxyl-terminal SH3 domain can bivalently associate with two ligands, in an SH3 dependent manner” (Scientific Reports, 2017).

The target in assay [1] is T1, Grb2 C-terminal SH3 domain (SH3C), residues 155-217 (mouse, UniProt Q60631 155-217).
T1 construct: Uniformly 15N or 15N,13C labelled in the NMR titrations; monomer by glutaraldehyde cross-linking and SEC; also called Grb2 SH3C; Grb2 CSH3 domain; source: E. coli, purified (Ni2+-NTA chromatography); not shown: His tag, N-terminal, cleaved
T1 sequence (Q60631 155-217): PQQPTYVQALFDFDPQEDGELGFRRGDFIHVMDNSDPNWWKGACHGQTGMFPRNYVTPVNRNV
Nature of the assay: ITC; free Grb2 SH3C in the cell (20 uM for the peptide, 40 uM for Vav) titrated with 280 uM SLP65 peptide or 600 uM Vav SH3N; 20 mM sodium phosphate, 100 mM NaCl, pH 6.0, 25 °C; one-site binding model. Conditions: both partners purified. In general terms: Isothermal titration calorimetry measures the heat released or taken up as one component is titrated into another.

The target of assay [2] is T1, Grb2 C-terminal SH3 domain (SH3C), …. Nature of the assay: ITC; SLP65 peptide titrated into the preformed Grb2 SH3C-Vav SH3N binary complex (gives Complex 1, Vav displaced); 20 mM sodium phosphate, 100 mM NaCl, pH 6.0, 25 °C. Conditions: both partners purified.

B1: SLP65 peptide Ace-EKAPMVNRSTKPNSSS-NH2 (residues 201-216 of mouse SLP65) (peptide)
peptide: Ac-EKAPMVNRSTKPNSSS-NH2
notes: SLP65, mouse, residues 201-216; also called synthetic peptide; source: synthetic peptide
Broadly, the Kd is the constant that tells how readily two partners part at equilibrium. A low value points to tighter binding. The term stoichiometry N denotes a count of units in the complex or per binding partner. For B1, in assay [1], the Kd was 3.55 ± 0.2 µM, the dH was -6.67 ± 0.15 kcal/mol and the “stoichiometry N” value turned out to be 0.87 ± 0.02. Besides, in assay [2], the “Kd with Vav SH3N prebound to Grb2 SH3C (Vav displaced)” value turned out to be 33.3 ± 1.1 µM and the “dH with Vav SH3N prebound to Grb2 SH3C (Vav displaced)” value was -5.9 ± 0.04 kcal/mol.
